This is an account of results in paper PMC3655416 (Developmental cell, 2013).

What is called stoichiometry N is a count of units in the complex or per binding partner.

Series [1] addresses Purified SAS-5 C-terminus (C. elegans) (UniProt Q20010). Kind of series: SEC-MALS.
The target in series [2] is T1, Full-length SAS-5, purified, on beads (C. elegans, UniProt Q20010 1-404).
T1 sequence (looked up): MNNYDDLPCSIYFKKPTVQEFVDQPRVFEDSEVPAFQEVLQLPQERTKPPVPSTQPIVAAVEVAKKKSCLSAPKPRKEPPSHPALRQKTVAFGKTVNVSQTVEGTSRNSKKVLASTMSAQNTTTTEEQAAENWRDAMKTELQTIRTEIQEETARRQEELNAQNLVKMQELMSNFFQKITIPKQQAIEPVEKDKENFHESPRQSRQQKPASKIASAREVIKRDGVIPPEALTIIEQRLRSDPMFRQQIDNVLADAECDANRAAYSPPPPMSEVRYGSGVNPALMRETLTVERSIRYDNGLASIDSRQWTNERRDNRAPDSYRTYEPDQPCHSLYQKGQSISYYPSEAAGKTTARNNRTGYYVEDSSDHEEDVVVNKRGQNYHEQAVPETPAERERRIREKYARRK
Kind of series: pull-down.

The series “SEC” deals with the molecule itself. Briefly: SEC. A general note: In gel filtration, larger molecules generally elute earlier.

For the molecule “Purified SAS-5 C-terminus (from UniProt Q20010 1-404) (domain or fragment)”, the stoichiometry N in series [1] amounted to 2.

B1: Full-length WT SAS-6, purified (natural protein, C. elegans, UniProt O62479 1-492, looked up)
chain: MTSKIALFDQTLIASLLQPLSLNQPDFKAYKTKVKLKISEQRNETSGEKELKFEISRSDDFEFLFSETLNNEKYQILARDHDLTVDFDAFPKVIIQHLLCKNIVKNLEEDGEVDARKKAGYHSIADPGKPTEINIILDAEKNFCSFELFSKTPISKGKIFSIKLHAVRGDHLISHLLKICSSQAVKLSTFYKSADELASLRQKCGDLEKQVEKLSGVKEEFEEMSEKFKELEDEVELVKEERENIRLLVEDKEDEVADLKQDTESLQKQLEENQEELEIVGNMLREEQGKVDQLQKRNVAHQKEIGKLRAELGTAQRNLEKADQLLKRNSQQQNQQSLDMRKLGELEADLKEKDSMVESLTETIGILRKELENEKLKAAENMDSFEKLSMENENLKEKIAHYRAQRFSPAPSGLPGLQTGLTNRLTPSFKPVLGPHTPYGANLNSRTPFRDNTTLNFQNSTIATPHAFRFNSQLIADETTGSSVTNTPPAQR
Consider B1, for which, in series [2], the “stoichiometry N” value is 2 SAS-6:SAS-5.

B2: WT SAS-6^1-389, purified (domain or fragment, C. elegans, UniProt O62479 1-389, looked up)
chain: MTSKIALFDQTLIASLLQPLSLNQPDFKAYKTKVKLKISEQRNETSGEKELKFEISRSDDFEFLFSETLNNEKYQILARDHDLTVDFDAFPKVIIQHLLCKNIVKNLEEDGEVDARKKAGYHSIADPGKPTEINIILDAEKNFCSFELFSKTPISKGKIFSIKLHAVRGDHLISHLLKICSSQAVKLSTFYKSADELASLRQKCGDLEKQVEKLSGVKEEFEEMSEKFKELEDEVELVKEERENIRLLVEDKEDEVADLKQDTESLQKQLEENQEELEIVGNMLREEQGKVDQLQKRNVAHQKEIGKLRAELGTAQRNLEKADQLLKRNSQQQNQQSLDMRKLGELEADLKEKDSMVESLTETIGILRKELENEKLKAAENMDSFEKLS
B2: the binding result in “SEC” is given as “binds”.
